In US5922557A, “System for stably expressing a high-affinity camp phosphodiesterase and use thereof” (Merck & Co., Inc., priority 1998, dated 1999):
Where two headings read alike, the source gives them in different places.

Tests used:
[1] = test system: CHO-K1 cells stably expressing rhPDE IVa; assay: cells; format: cell-based; conditions: CHO-K1, 10 min
Method: Levels of cAMP were measured in CHO-K1 cells stably expressing PDE IVa enzyme as outlined in Materials and Methods.
CHO-K1 cells were plated at a density of 10^6 cells/175 cm^2 containing complete media with 500 μg/ml hygromycin. The flasks were maintained in an incubator at 37° C. with 5.0% CO2 for 72 hr. The media was changed and the cells were allowed to grow overnight. The cells were washed and dissociated from the plate with PBS containing 0.5 mM EDTA. Cellular cAMP content was measured by centrifuging the cell suspension at 150 g×10 min and resuspending the cells in a Hanks buffered salt solution at a density of 0.2×10^6 cells/ml. The cells were preincubated at room temperature for 15 min and then incubated with 10 μM prostaglandin I2 (PGI2) and the indicated compound for an additional 10 min. Basal cAMP levels were determined by incubating the cells in 0.1% DMSO. The incubations were terminated by the addition of HCl (0.1N final) and the cells measured for cAMP.
Determinations of whole-cell cAMP content were performed by incubating 100 μl reconstituted rabbit anti-succinyl cAMP serum with 100 μl of the whole-cell reaction or known cAMP standard and 30 pmol of 125I-cAMP TME in a […]™ well (300 μl final volume) at room temperature for 18 h. Total cpm (Bo) was determined in the absence of sample or cAMP standard. The reaction mixture was then aspirated out of the well, and individual wells were counted in a BECKMAN LS 6000SC with the window open from 10-999 for 1 min. The data were expressed as %B/Bo=[(standard or sample cpm--non-specific cpm)/(Bo cpm-non-specific cpm)]×100. Non-specific cpm were determined by incubating only the 125I-cAMP TME with assay buffer (50 mM acetate; pH 5.8) in the ScintiStrip™ well. All determinations were performed in triplicate.

[2] = Kinetic characterization of PDE IVa enzymes with cAMP as substrate; format: biochemical
Method: PDE IVa activity was assayed in the 100,000×g supernatant obtained from sonicated CHO-K1 cells stably expressing the enzyme. The enzyme activity was assayed in duplicate at substrate concentrations ranging from 0.2 μM to 30 μM using the Amersham SPA beads as described in Materials and Methods. Shown are the saturation kinetics for the enzyme. The inset graph is a double-reciprocal plot of the kinetic data. Average of 3 separate experiments +/- SD .
Panel A. Shown are the saturation kinetics for the enzyme.PDE IVA activity was assayed in the 100,000×g supernatant obtained from sonicated CHO-K1 cells stably expressing the enzyme. The enzyme activity was assayed in duplicate at substrate concentrations ranging from 0.2 mM to 10 mM using the Amersham SPA beads as described in Materials and Methods. Average of 3 separate experiments +/- SEM . Panel B. Double-reciprocal replot of the averaged saturation data.

CCCCC[C@H](O)/C=C/[C@@H]1[C@H]2C/C(=C/CCCC(=O)O)O[C@H]2C[C@H]1O [PGI2, prostaglandin I2]
fold induction at 10 µM ([1]; read-out: increase in basal cAMP content): 2 | activation at 10 µM ([1]; PGI2 alone, read-out: increase in basal cAMP levels): ~50%

B1: PDE IVa: recombinant full-length human PDE IVa enzyme stably expressed in CHO-K1 cells (protein, UniProt P27815 1-886, looked up)
chain: MEPPTVPSERSLSLSLPGPREGQATLKPPPQHLWRQPRTPIRIQQRGYSDSAERAERERQPHRPIERADAMDTSDRPGLRTTRMSWPSSFHGTGTGSGGAGGGSSRRFEAENGPTPSPGRSPLDSQASPGLVLHAGAATSQRRESFLYRSDSDYDMSPKTMSRNSSVTSEAHAEDLIVTPFAQVLASLRSVRSNFSLLTNVPVPSNKRSPLGGPTPVCKATLSEETCQQLARETLEELDWCLEQLETMQTYRSVSEMASHKFKRMLNRELTHLSEMSRSGNQVSEYISTTFLDKQNEVEIPSPTMKEREKQQAPRPRPSQPPPPPVPHLQPMSQITGLKKLMHSNSLNNSNIPRFGVKTDQEELLAQELENLNKWGLNIFCVSDYAGGRSLTCIMYMIFQERDLLKKFRIPVDTMVTYMLTLEDHYHADVAYHNSLHAADVLQSTHVLLATPALDAVFTDLEILAALFAAAIHDVDHPGVSNQFLINTNSELALMYNDESVLENHHLAVGFKLLQEDNCDIFQNLSKRQRQSLRKMVIDMVLATDMSKHMTLLADLKTMVETKKVTSSGVLLLDNYSDRIQVLRNMVHCADLSNPTKPLELYRQWTDRIMAEFFQQGDRERERGMEISPMCDKHTASVEKSQVGFIDYIVHPLWETWADLVHPDAQEILDTLEDNRDWYYSAIRQSPSPPPEEESRGPGHPPLPDKFQFELTLEEEEEEEISMAQIPCTAQEALTAQGLSGVEEALDATIAWEASPAQESLEVMAQEASLEAELEAVYLTQQAQSTGSAPVAPDEFSSREEFVVAVSHSSPSALALQSPLLPAWRTLSVSEHAPGLPGLPSTAAEVEAQREHQAAKRACSACAGTFGEDTSALPAPGGGGSGGDPT
modifications: full-length
notes: recombinant full-length human PDE IVa enzyme stably expressed in CHO-K1 cells
Vmax ([2]; soluble PDE IVa from CHO-K1 cells): 19.5 nM cAMP hydrolyzed/mg. protein per min | Km ([2]; soluble PDE IVa from CHO-K1 cells, read-out: Km of the enzyme for cAMP as a substrate): 3.5 µM

B2: FLAG PDE IVA: purified full-length epitope FLAG PDE IVA enzyme (protein, UniProt P27815 1-886, looked up)
chain: MEPPTVPSERSLSLSLPGPREGQATLKPPPQHLWRQPRTPIRIQQRGYSDSAERAERERQPHRPIERADAMDTSDRPGLRTTRMSWPSSFHGTGTGSGGAGGGSSRRFEAENGPTPSPGRSPLDSQASPGLVLHAGAATSQRRESFLYRSDSDYDMSPKTMSRNSSVTSEAHAEDLIVTPFAQVLASLRSVRSNFSLLTNVPVPSNKRSPLGGPTPVCKATLSEETCQQLARETLEELDWCLEQLETMQTYRSVSEMASHKFKRMLNRELTHLSEMSRSGNQVSEYISTTFLDKQNEVEIPSPTMKEREKQQAPRPRPSQPPPPPVPHLQPMSQITGLKKLMHSNSLNNSNIPRFGVKTDQEELLAQELENLNKWGLNIFCVSDYAGGRSLTCIMYMIFQERDLLKKFRIPVDTMVTYMLTLEDHYHADVAYHNSLHAADVLQSTHVLLATPALDAVFTDLEILAALFAAAIHDVDHPGVSNQFLINTNSELALMYNDESVLENHHLAVGFKLLQEDNCDIFQNLSKRQRQSLRKMVIDMVLATDMSKHMTLLADLKTMVETKKVTSSGVLLLDNYSDRIQVLRNMVHCADLSNPTKPLELYRQWTDRIMAEFFQQGDRERERGMEISPMCDKHTASVEKSQVGFIDYIVHPLWETWADLVHPDAQEILDTLEDNRDWYYSAIRQSPSPPPEEESRGPGHPPLPDKFQFELTLEEEEEEEISMAQIPCTAQEALTAQGLSGVEEALDATIAWEASPAQESLEVMAQEASLEAELEAVYLTQQAQSTGSAPVAPDEFSSREEFVVAVSHSSPSALALQSPLLPAWRTLSVSEHAPGLPGLPSTAAEVEAQREHQAAKRACSACAGTFGEDTSALPAPGGGGSGGDPT
modifications: full-length FLAG epitope tag
Vmax ([2]; 150 mM KCl, 0 mg/ml HSA): 9.7 ± 0.2 μm/mg/min | Vmax ([2]; 150 mM KCl, 3 mg/ml HSA): 4.8 ± 0 μm/mg/min | Km ([2]; 150 mM KCl, 3 mg/ml HSA, read-out: Km): 4.8 ± 0.1 µM
